# Assays:
# Assay type in all cases: biochemical
# [1] = Substrate specificity analysis of amino acid degrading enzymes (reaction rate, A555); details: room temperature, pH 6.8, amino acids 4 mM, pentosidine 2 mM solutions
# Description: The amino acid eliminating enzyme 1 liquid obtained in Example 12 was diluted to 0.134 U/ml with a 0.1 M potassium phosphate buffer (pH 6.8).
# Pentosidine (which was the same as in Example 12) was dissolved at 2 mM in deionized water. Various amino acids were each dissolved at 4 mM in deionized water.
# Peroxidase (manufactured by Toyobo Co., Ltd.) (3.99 U/ml), 4-aminoantipyrine (manufactured by Fluka/Honeywell International Inc.) (1.8 mM), and TOOS (manufactured by Dojindo Laboratories Co., Ltd.) (2 mM) were dissolved in deionized water.
# Every measurement was performed at room temperature unless otherwise specified. A 96-well microwell plate (manufactured by Nunc/Thermo Fisher Scientific, Inc.) was used in reaction.
# 25 μl of each amino acid solution or the pentosidine solution of (2) and 25 μl of the coloring reagent of (3) were added in order to 50 μl of the enzyme liquid of (1). At the start and ten minutes later, absorbance at 555 nm was measured. A slope of elevation in absorbance was regarded as a reaction rate for the target substrate. […]
# Every measurement was performed at room temperature unless otherwise specified. […] At the start and ten minutes later, absorbance at 555 nm was measured. A slope of elevation in absorbance was regarded as a reaction rate for the target substrate.
# [2] = Method for measuring enzymatic activity (pentosidine oxidase activity, A555), Examples 9 and 10; details: 37° C., pH 7.5; 1 mg enzyme powder in 1 mL deionized water
# Description: The amount of the enzyme that produced 1 μmol of hydrogen peroxide per minute at 37° C. was defined as 1 unit (U). The activity was calculated according to the following expression.
# Each buffer was prepared as a 50 mM (final concentration) citric acid-100 mM potassium phosphate buffer (pH 4.0 to 7.5), a 100 mM (final concentration) potassium phosphate buffer (pH 6.5 to 8.0), and a 100 mM (final concentration) glycine buffer (pH 8.0 to 11.0). Enzyme reaction was performed at each pH at a temperature of 37° C. using these buffers. […] It was therefore concluded that the optimum pH of PenOX2 is pH 6.5 to 8.0 and is most preferably pH 7.5.
# The activity of PenOX2 was measured at varying temperatures using a 50 mM (final concentration) potassium phosphate buffer (pH 7.5). […] It was thus concluded that the range of the optimum temperature of PenOX2 is from 37° C. to 50° C.
# As mentioned above, both PenOX1 and PenOX2 had pentosidine oxidase activity. When the percent match between their amino acid sequences was examined using the BLAST program, the amino acid sequence homology therebetween was 38.2%. […] The amino acid sequence homology to PenOX1 and PenOX2 and pentosidine oxidase activity of each enzyme were as follows.
# [3] = Pentosidine quantification test (DA-67/peroxidase, A658); details: 37° C., pH 7.0
# Description: The following reagents were prepared, and pentosidine was measured using Bio Majesty JCA-BM1650 (manufactured by JEOL Ltd.).
# 0.2 μM, 0.4 μM, 0.6 μM, 1.0 μM, 2.0 μM or 4.0 μM pentosidine solution (prepared using the same pentosidine as in Example 2)
# 120 mM potassium phosphate buffer (pH 7.0)
# 0.2 mM DA-67 (10-(carboxymethylaminocarbonyl)-3,7-bis(dimethylamino)phenothiazine, sodium salt) (manufactured by FUJIFILM Wako Pure Chemical Corp.)
# 25 μL of each sample was added to 50 μL of the first reagent, and the mixture was incubated at 37° C. for 5 minutes. Then, 25 μL of the second reagent was added thereto, and pentosidine oxidation reaction mediated by PenOX2 and reaction for the detection of hydrogen peroxide produced through the reaction were allowed to proceed at 37° C. for 5 minutes.
# In the reaction for the detection of hydrogen peroxide, DA-67 was oxidized, with concomitant consumption of […], into methylene blue which in turn developed color while absorbance (A658) was elevated. […] Elevation in A658 was able to be confirmed immediately after addition of the second reagent containing PenOX2.
# Subsequently, the amount of elevation in A658 (ΔA) caused by the oxidation of pentosidine was calculated according to the following expression.
# ΔA=(Absorbance 5 minutes after addition of the second reagent)−(Absorbance immediately before addition of the second reagent×0.75)
Molecule,substrate having the highest reaction rate [1],specific activity (pentosidine oxidase) as a reference value [2] [U/mg],also measured
"amino acid degrading enzyme 1: mature escapin derived from Aplysia californica (SEQ ID NO: 15) expressed in Aspergillus sojae (protein, listed as Aplysia californica) DGVCRNRRQCNKEVCGSSYDVAIVGAGPGGANSAYMLRESGLDIAVFEYSDRVGGRLFTYQLPNTPDVNLEIGGMRFIEGAMHRLWKVISELGLTPKVFKEGFGKEGRQRFYLRGQSLTKKQVKSGDVPYDLSPEEKANQGRLVEYYLEKLTGLQLNGGPLKREVALKLTVPDGRFLYDLTFDEALDLVASPEGKEFARDTHVFTSEVTLDASAISIFDDHLGEDYYGSEIYTLEEGMSSVPQGLLQTFLDAAKSNEFFPNNHLKALRRRTNGQYVLYFEPTTSKDGQTTINYLEPLKVVCAQRVILAMPVYALRQLDWSQLRNDRATQAYRAVRPMPASKVFMTFDQPWWLQNERKSWVTKSDALFSQMYDWQKSEASGDYILIASYADGLKAQYLRELKNQGEDIPGSDPGYNQVTVPLKDAILEHLTEAYGVERDSIPEPVTAASQFWTDYPFGCGWITWRAGYHFDDVISTMRRPSLKDEVYVVGSDYSWGLISSWIEGALETSENVINDYFL",arginine,,
"Crotalus Atrox-Derived Amino Acid Oxidase Type I: purchased enzyme manufactured by Merck KGaA, SEQ ID NO: 13 (protein, Crotalus atrox) AHDRNPLEECFRETDYEEFLEIAKNGLTATSNPKRVVIVGAGMAGLSAAYVLAGAGHQVTVLEASERVGGRVRTYRKKDWYANLGPMRLPTKHRIVREYIKKFDLKLNEFSQENENAWYFIKNIRKRVREVKNNPGLLEYPVKPSEEGKSAAQLYVESLRKVVEELRSTNCKYILDKYDTYSTKEYLLKEGNLSPGAVDMIGDLLNEDSGYYVSFIESLKHDDIFGYEKRFDEIVGGMDQLPTSMYEAIKEKVQVHFNARVIEIQQNDREATVTYQTSANEMSSVTADYVIVCTTSRAARRIKFEPPLPPKKAHALRSVHYRSGTKIFLTCTKKFWEDDGIHGGKSTTDLPSRFIYYPNHNFTSGVGVIIAYGIGDDANFFQALDFKDCADIVINDLSLIHELPKEDIQTFCHPSMIQRWSLDKYAMGGITTFTPYQFQHFSEALTAPFKRIYFAGEYTAQFHGWIDSTIKSGLTAARDVNRASENPSGIHLSNDNEF",,0.022,
"amino acid eliminating enzyme 2: Crotalus adamanteus-derived L-amino acid oxidase Type I, manufactured by Merck KGaA (SEQ ID NO: 19) (protein, listed as Crotalus adamanteus) AHDRNPLEECFRETDYEEFLEIAKNGLTATSNPKRVVIVGAGMAGLSAAYVLAGAGHQVTVLEASERVGGRVRTYRKKDWYANLGPMRLPTKHRIVREYIKKFDLKLNEFSQENENAWYFIKNIRKRVREVKNNPGLLEYPVKPSEEGKSAAQLYVESLRKVVEELRSTNCKYILDKYDTYSTKEYLLKEGNLSPGAVDMIGDLLNEDSGYYVSFIESLKHDDIFGYEKRFDEIVGGMDQLPTSMYEAIKEKVQVHFNARVIEIQQNDREATVTYQTSANEMSSVTADYVIVCTTSRAARRIKFEPPLPPKKAHALRSVHYRSGTKIFLTCTKKFWEDDGIHGGKSTTDLPSRFIYYPNHNFTSGVGVIIAYGIGDDANFFQALDFKDCADIVINDLSLIHELPKEDIQTFCHPSMIQRWSLDKYAMGGITTFTPYQFQHFSEALTAPFKRIYFAGEYTAQFHGWIDSTIKSGLTAARDVNRASENPSGIHLSNDNEF",leucine,,
"Trichoderma viride-Derived Lysine Oxidase: purchased enzyme manufactured by Merck KGaA, SEQ ID NO: 14 (protein, Trichoderma viride) MDNVDFAESVRTRWARRLIREKVAKELNILTERLGEVPGIPPPREGRFLGGGYSHDNLPSDPLYSSIKPALLKEAPRAEEELPPRKVCIVGAGVSGLYIAMILDDLKIPNLTYDIFESSSRTGGRLYTHHFTDAKHDYYDIGAMRYPDIPSMKRTFNLFKRTGMPLIKYYLDGENTPQLYNNHFFAKGVVDPYMVSVANGGTVPDDVVDSVGEKLQQAFGYYKEKLAEDFDKGFDELMLVDDMTTREYLKRGGPKGEAPKYDFFAIQWMETQNTGTNLFDQAFSESVIDSFDFDNPTKPEWYCIEGGTSLLVDAMKETLVHKVQNNKRVEAISIDLDAPDDGNMSVKIGGKDYSGYSTVFNTTALGCLDRMDLRGLNLHPTQADAIRCLHYDNSTKVALKFSYPWWIKDCGITCGGAASTDLPLRTCVYPSYNLGDTGEAVLLASYTWSQDATRIGSLVKDAPPQPPKEDELVELILQNLARLHAEHMTYEKIKEAYTGVYHAYCWANDPNVGGAFALFGPGQFSNLYPYLMRPAAGGKFHIVGEASSVHHAWIIGSLESAYTAVYQFLYKYKMWDYLRLLLERWQYGLQELETGKHGTAHLQFILGSLPKEYQVKIV",,0.063,
"PenOX1: protein having the amino acid sequence of SEQ ID NO: 2, pentosidine oxidase from a filamentous fungus of the genus Sarocladium (protein, listed as Sarocladium sp.) MKSPSLAVAGLLLGSSSLSHATQLRIETRKSLNSRIANVHIDVDAPVAHQVVFTYGPCDSESQENAHHVIAQSQKLEGRKPHRLIWTMPKDLHPDDCISAWGESGDLLGRSVPQKVAHKEMRRRKRDDSDYSIPMNSSSGIDVYGPWFDGVALLEKSDNHNVDVEAAKAKEIAIVGAGMAGLTTYFILSEAGLSNLTILEASGRLGGRVRTEYLSGGPRDHSYAEMGPMRIPYQARFGDKAYNISDQAIFFRLVEKVNERNKKLGNTKDLINLIPFIQSSPNGLAYYQGNKLENGLPPTQADVAADPALGNESPEIPESAQELAAQLQRALPNAEFLELMATNFWQAHAEFLENQGPAGLPGDQWSEFAFLVNYLNATVFDANAVTGGYDWHSSLDRSSLVGMNLLPNAFHPLVDDITKFNAKVEKVQLDEKTSRLKLHWRANYTDPELESQSFDYAILSPTMPAVQKLRLPGLPFAMRNAVDSMPYASACKVALEYRTRFWEKFDNPIYGSCSTSTDIPGIGSVCYPSSNINGSGPASLLASYEIGRPYGAEWAGIPEEQHVQYVIDAMIDIHGEVARREFTGKCKRKCWALDEFSNGGWASPTVGNHETYLPSFFETHSHMIFVGEHTSYTHAWIASAIESAVRGSVQLLLELGLIDEAKDVVNTWMARWISVVSDLSKAVVSGASA",,,pentosidine oxidizing activity [3]: exhibited pentosidine oxidizing activity

# — patent US20220396822A1, “Method for Measuring Pentosidine and Measurement Kit” (Kikkoman Corporation, priority 2019, published 2022)
